Laboratory results reported in patent US20230092081A1.

Target: S. ruber SSB cdel 111 C-terminal deletion mutant lacking the C-terminal 111 residues of the wildtype SSB (Salinibacter ruber)
Experiment: size exclusion chromatography, 150 mM NaCl, self-association

Substance “S. ruber SSB cdel 111 C-terminal deletion mutant lacking the C-terminal 111 residues of the wildtype SSB” has an oligomer mass as multiple of the monomer mass (times monomer size) of 3.8.
